T1: human IL-2Rβ ectodomain (amino acids 1-214), C-terminal hexahistidine tag (human, UniProt P14784 27-240)
T1 construct: range 1-214; also called CD122; IL-2Rβ ECD
T1 sequence: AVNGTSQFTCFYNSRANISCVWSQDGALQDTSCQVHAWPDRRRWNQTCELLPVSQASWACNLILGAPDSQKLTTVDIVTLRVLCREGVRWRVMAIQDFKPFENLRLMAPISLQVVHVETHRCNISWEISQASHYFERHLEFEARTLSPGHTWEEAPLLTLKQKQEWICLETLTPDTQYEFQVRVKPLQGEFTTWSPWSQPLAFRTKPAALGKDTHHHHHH

T2: biotinylated IL-2Rβ ectodomain (C-terminal biotin acceptor peptide and hexahistidine tag) (human, UniProt P14784 27-240, C-terminally biotinylated (biotin acceptor peptide, BirA ligase))
T2 construct: range 1-214; Staining reagent for yeast; also called tetrameric IL-2Rβ; monomeric IL-2Rβ
T2 sequence: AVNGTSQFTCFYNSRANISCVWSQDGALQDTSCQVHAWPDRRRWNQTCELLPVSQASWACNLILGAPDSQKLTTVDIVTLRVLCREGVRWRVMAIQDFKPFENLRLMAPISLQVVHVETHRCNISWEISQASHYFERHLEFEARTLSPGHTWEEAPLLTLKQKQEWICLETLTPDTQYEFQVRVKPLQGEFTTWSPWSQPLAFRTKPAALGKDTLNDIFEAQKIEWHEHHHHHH

B1: H9-RET (H9 with L18R, Q22E and Q126T) (ligand)
chain: APTSSSTKKTQLQLEHLRLDLEMILNGINNYKNPKLTRMLTFKFYMPKKATELKHLQCLEEELKPLEEVLNLAQSKNFHFDPRDVVSNINVFVLELKGSETTFMCEYADETATIVEFLNRWITFCTSIISTLTHHHHHH
B2: IL-2 mutein E10 (ligand)
chain: B1 chain with R18L, E22Q, Q74S, T126Q
B3: IL-2 mutein D10 (ligand)
chain: B1 chain with R18L, E22Q, Q74H, T126Q
notes: also called IL-2 D10; super-2
B4: IL-2 mutein H4 (ligand)
chain: B1 chain with R18L, E22Q, Q74S, F80L, D81T, V86I, T126Q
B5: IL-2 mutein H9 (ligand)
chain: B1 chain with R18L, E22Q, T126Q
notes: also called super-IL-2; super-2
B6: IL-2 mutein B1 (ligand)
chain: B1 chain with R18L, E22Q, Q74N, I89V, T126Q
B7: IL-2 mutein C5 (ligand)
chain: B1 chain with R18L, E22Q, Q74N, F80V, D81T, T126Q
B8: IL-2 mutein G8 (ligand)
chain: B1 chain with R18L, E22Q, Q74N, T126Q
B9: yeast-displayed IL-2 clone G8 (ligand)
chain: APTSSSTKKTQLQLEHLLLDLQMILNGINNYKNPKLTRMLTFKFYMPKKATELKHLQCLEEELKPLEEVLNLANSKNFHFDPRDVVSNINVFVLELKGSETTFMCEYADETATIVEFLNRWITFCQSIISTLT
notes: Clone of the second generation yeast library; not shown: yeast display fusion partner and linker encoded by vector pCT302
B10: yeast-displayed IL-2 clone B1 (ligand)
chain: B9 chain with I89V
notes: as for B9
B11: yeast-displayed IL-2 clone H9 (ligand)
chain: B9 chain with N74Q
notes: as for B9
B12: yeast-displayed IL-2 clone D10 (ligand)
chain: B9 chain with N74H
notes: as for B9
B13: yeast-displayed IL-2 clone H4 (ligand)
chain: B9 chain with N74S, F80L, D81T, V86I
notes: as for B9
B14: yeast-displayed IL-2 clone E10 (ligand)
chain: B9 chain with N74S
notes: as for B9
B15: yeast-displayed IL-2 clone C5 (ligand)
chain: B9 chain with F80V, D81T
notes: as for B9

The koff is a measure of how fast the partners let go of each other. High values mean a short-lived complex, low ones a long-lived complex. Usually Kd stands for the equilibrium constant for the complex coming apart. The kon is a measure of how fast the partners come together.

Changes are numbered by the printed parent chain. In names and notes the source's numbering stands.

The target in the first test is CD25 (IL-2Rα) on CD25+ YT-1 cells (human) (UniProt P01589). Kind of test: cell-based or functional assay.
Chain of CD25 (IL-2Rα) on CD25+ YT-1 cells (human) (P01589 22-272): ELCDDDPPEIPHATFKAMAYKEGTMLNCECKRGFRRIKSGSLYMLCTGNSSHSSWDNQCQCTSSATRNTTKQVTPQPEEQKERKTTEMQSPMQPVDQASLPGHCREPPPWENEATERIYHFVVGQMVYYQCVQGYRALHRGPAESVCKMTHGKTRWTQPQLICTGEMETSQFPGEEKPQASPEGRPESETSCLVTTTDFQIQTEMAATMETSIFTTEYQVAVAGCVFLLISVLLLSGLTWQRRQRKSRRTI
With “IL-2 F42A (from UniProt P60568 21-153) (ligand)”, the STAT5 phosphorylation dose response on CD25+ YT-1 cells was determined as 1 log.

A further test has as its target T1, human IL-2Rβ ectodomain (amino acids …). In words: SPR. The protocol:
Dissociation was then tracked for 200 s. An irrelevant biotinylated protein was immobilized in the reference channel to subtract non-specific binding from the measurements. Experiments were carried out in HBS-P+ buffer (GE Healthcare) supplemented with 0.2% BSA at 25° C. All binding studies were performed at a flow rate of […] to minimize mass transport contributions and prevent rebinding of the analyte. For all measurements, data analysis and determination of equilibrium and kinetic parameters were implemented using the Biacore T100 evaluation software version 2.0 assuming a 1:1 Langmuir binding model.
In general terms: In SPR one partner is held on a chip, and binding of the other changes the refractive index at the surface.
Consider B1, for which the binding result was “binds”.

The target is the same in another test. In words: surface plasmon resonance.
Molecule B2 registered an off-rate (koff) of 0.0055 s⁻¹.
The molecule B3 registered a Kd of 1.3 nM, a koff of 0.0051 s⁻¹ and an association rate constant (kon) of 4.1e+06 M⁻¹ s⁻¹.
B4: the koff is 0.013 s⁻¹.
The molecule B5 had a Kd of 1.4 nM, a koff of 0.0056 s⁻¹ and a kon of 4.1e+06 M⁻¹ s⁻¹.
As to B6, the koff stood at 0.005 s⁻¹.
The molecule B7 returned an off-rate (koff) of 0.016 s⁻¹.
For B8, the koff amounted to 0.0049 s⁻¹.

The target is the same in the next test. Kind of test: SPR (Example 10), recombinant protein.
In the case of B2, the Kd stood at 1.3 nM.
Turning to B3, the Kd was 1.2 nM.
Turning to B4, the Kd was found to be 14 nM.
Take B5: the dissociation constant Kd stood at 1.3 nM.
Take B6: the dissociation constant (Kd) was determined as 1.6 nM.
Turning to B7, the Kd came to 10 nM.
Turning to B8, the Kd was 1.5 nM.

In the next test the target is T2, biotinylated IL-2Rβ ectodomain …. Kind of test: yeast clone screen: labeling with 5 nM IL-2Rβ and then SAV-PE. The protocol:
Selection of second generation IL-2 library: The library was subjected to five rounds of selection against IL-2Rβ (FIG. 2B). This selection method was performed exactly as with the first generation library, only with modifications to the concentrations of IL-2Rβ used (round 1—1 μM, round 2—100 nM, round 3—30 nM, round 4—30 nM, round 5—10 nM, all monomeric IL-2Rβ). Upon conclusion of selections, round four and round five yeast cultures were spread on SD-CAA plates, which yielded individual yeast colonies. 48 individual yeast clones from both rounds were grown in 96-well block format and screened by labeling with 5 nM IL-2Rβ and then SAV-PE.
Consider B9, for which the binding result was “binds”.
For the molecule B10, the binding result was “binds”.
Turning to B11, the binding result is “binds”.
Regarding B12, the binding result is “binds”.
Regarding B13, the binding result was “binds”.
B14: the binding result is given as “binds”.
Same read-out and setting: to B15 belongs “binds”.

The next test addresses T1, human IL-2Rβ ectodomain (amino acids …). Kind of test: SPR affinities of D10 and wild-type IL-2, told with the structure.
Take B3: the fold affinity gain was approximately 300 fold.

Values taken from US20190119346A1 (Stanford University, published 2019).
